Laboratory results reported in PMC5563082 (2017).

T1: human NL1(–A–B)_(ECTO), biotinylated and immobilised for SPR (human, biotin on the Avitag (in vivo biotinylation by BirA))
T1 chain: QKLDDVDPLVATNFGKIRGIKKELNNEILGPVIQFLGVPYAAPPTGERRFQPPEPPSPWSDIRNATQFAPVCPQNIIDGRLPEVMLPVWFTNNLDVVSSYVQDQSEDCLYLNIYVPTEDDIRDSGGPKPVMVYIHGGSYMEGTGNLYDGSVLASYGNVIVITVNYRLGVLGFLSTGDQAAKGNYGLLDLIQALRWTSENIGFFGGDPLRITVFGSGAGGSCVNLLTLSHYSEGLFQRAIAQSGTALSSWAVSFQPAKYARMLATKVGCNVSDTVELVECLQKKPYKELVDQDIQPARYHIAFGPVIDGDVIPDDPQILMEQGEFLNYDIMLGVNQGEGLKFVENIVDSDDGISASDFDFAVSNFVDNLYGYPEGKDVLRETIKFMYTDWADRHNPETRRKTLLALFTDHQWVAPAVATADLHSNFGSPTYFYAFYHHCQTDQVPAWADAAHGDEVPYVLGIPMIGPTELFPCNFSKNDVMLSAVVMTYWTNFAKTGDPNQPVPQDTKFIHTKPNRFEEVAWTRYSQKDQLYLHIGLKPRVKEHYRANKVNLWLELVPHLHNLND

T2: human NL1(–A–B)_(ECTO) Arg450Cys, immobilised for SPR (human, biotin on the Avitag (in vivo biotinylation by BirA))
T2 chain: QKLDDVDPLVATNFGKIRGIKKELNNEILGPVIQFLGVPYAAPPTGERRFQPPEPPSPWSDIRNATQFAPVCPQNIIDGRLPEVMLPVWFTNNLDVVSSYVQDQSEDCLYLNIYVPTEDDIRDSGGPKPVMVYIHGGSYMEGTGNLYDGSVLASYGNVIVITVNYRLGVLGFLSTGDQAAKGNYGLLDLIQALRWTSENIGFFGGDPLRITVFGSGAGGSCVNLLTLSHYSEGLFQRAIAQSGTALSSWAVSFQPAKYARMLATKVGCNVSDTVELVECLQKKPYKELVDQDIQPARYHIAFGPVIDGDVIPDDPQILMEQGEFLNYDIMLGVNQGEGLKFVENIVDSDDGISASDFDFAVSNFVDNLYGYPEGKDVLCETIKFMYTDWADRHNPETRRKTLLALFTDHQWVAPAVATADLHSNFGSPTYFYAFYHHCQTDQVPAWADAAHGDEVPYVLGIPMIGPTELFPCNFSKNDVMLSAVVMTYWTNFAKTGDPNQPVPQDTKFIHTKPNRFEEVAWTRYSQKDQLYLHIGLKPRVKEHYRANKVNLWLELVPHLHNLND


Legend:
[1] = biological target: T1, human NL1(–A–B)_(ECTO), biotinylated …; test: SPR
[2] = biological target: T2, human NL1(–A–B)_(ECTO) Arg450Cys, …; test: SPR

Binder	Kd [1]	Kd [2]
human β-neurexin-1 LNS6 domain with SS4 (β-NRX1_(LNS6)(+4)) (domain or fragment) not shown	2.59 µM	2.7 µM
human MDGA1 extracellular domain (MDGA1_(ECTO); Gln19-Lys925) (domain or fragment) QGVYAPAQAQIVHAGQACVVKEDNISERVYTIREGDTLMLQCLVTGHPRPQVRWTKTAGSASDKFQETSVFNETLRIERIARTQGGRYYCKAENGVGVPAIKSIRVDVQYLDEPMLTVHQTVSDVRGNFYQEKTVFLRCTVNSNPPARFIWKRGSDTLSHSQDNGVDIYEPLYTQGETKVLKLKNLRPQDYASYTCQVSVRNVCGIPDKAITFRLTNTTAPPALKLSVNETLVVNPGENVTVQCLLTGGDPLPQLQWSHGPGPLPLGALAQGGTLSIPSVQARDSGYYNCTATNNVGNPAKKTVNLLVRSMKNATFQITPDVIKESENIQLGQDLKLSCHVDAVPQEKVTYQWFKNGKPARMSKRLLVTRNDPELPAVTSSLELIDLHFSDYGTYLCMASFPGAPVPDLSVEVNISSETVPPTISVPKGRAVVTVREGSPAELQCEVRGKPRPPVLWSRVDKEAALLPSGLPLEETPDGKLRLERVSRDMSGTYRCQTARYNGFNVRPREAQVQLNVQFPPEVEPSSQDVRQALGRPVLLRCSLLRGSPQRIASAVWRFKGQLLPPPPVVPAAAEAPDHAELRLDAVTRDSSGSYECSVSNDVGSAACLFQVSAKAYSPEFYFDTPNPTRSHKLSKNYSYVLQWTQREPDAVDPVLNYRLSIRQLNQHNAVVKAIPVRRVEKGQLLEYILTDLRVPHSYEVRLTPYTTFGAGDMASRIIHYTEPINSPNLSDNTCHFEDEKICGYTQDLTDNFDWTRQNALTQNPKRSPNTGPPTDISGTPEGYYMFIETSRPRELGDRARLVSPLYNASAKFYCVSFFYHMYGKHIGSLNLLVRSRNKGALDTHAWSLSGNKGNVWQQAHVPISPSGPFQIIFEGVRGPGYLGDIAIDDVTLKKGECPRKQTDPNK	1.72 µM	–
human β-neurexin-1 LNS6 domain lacking SS4 (β-NRX1_(LNS6)(–4); His85-Val265) (domain or fragment) not shown	–	0.76 µM
